Laboratory results from US20240279318A1 (published 2024).

Assays:
[1] = target: A*02:11; assay: SPR
[2] = target: A*02:06; assay: SPR
[3] = target: A*02:07; assay: SPR; low fitting confidence
[4] = target: A*02:02; assay: SPR; low fitting confidence
[5] = target: A*02:03; assay: SPR; low fitting confidence
[6] = target: A*02:05; assay: SPR; low fitting confidence
[7] = target: A*02:05; assay: SPR
[8] = target: A*02:11; assay: SPR; low fitting confidence
[9] = target: AFP158/HLA-A*02:01 complex; assay: SPR
[10] = target: A*02:02; assay: SPR; low fitting confidence; remark: listed apart in the source
[11] = target: A*02:03; assay: SPR; low fitting confidence; remark: listed apart in the source
[12] = target: A*02:05; assay: SPR; low fitting confidence; remark: listed apart in the source
[13] = target: A*02:11; assay: SPR; remark: listed apart in the source
[14] = target: A*02:07; assay: SPR
[15] = target: A*02:06; assay: SPR; remark: listed apart in the source
[16] = target: A*02:11; assay: SPR; low fitting confidence; remark: listed apart in the source
[17] = target: A*02:07; assay: SPR; low fitting confidence; remark: listed apart in the source
[18] = target: A*02:03; assay: SPR
[19] = target: A*02:05; assay: SPR; remark: listed apart in the source
[20] = target: A*02:11; assay: SPR; head prints KD(1/s)
[21] = target: A*02:07; assay: SPR; head prints KD(1/s)
[22] = target: A*02:06; assay: SPR; head prints KD(1/s)
[23] = target: A*02:02; assay: SPR; head prints KD(1/s)
[24] = target: A*02:03; assay: SPR; head prints KD(1/s)
[25] = target: A*02:05; assay: SPR; head prints KD(1/s)
[26] = target: AFP158/HLA-A*02:01 complex; assay: SPR; head prints KD(1/s)
[27] = target: AFP158 loaded T2 cells (human;, UniProt P61769 21-119); assay: flow cytometry
[28] = target: A*02:02; assay: SPR
[29] = target: A*02:03; assay: SPR; remark: listed apart in the source

B1: AS179723 VL1g1VH1g1-N73Y (Fc fusion)
chain: QSVLTQPPSASGTPGQRVTISCSGSSNNIGGNYVNWYQQLPGTAPKLLIYDNKNRPSGVPDRFSGSKSGTSASLAISGLQSEDEADYYCASWDDSLSAVVFGGGTKLTVLGGGGSGGGGSGGGGSEVQLVESGGGLVQPGGSLRLSCAASGFTFLNYAMSWVRQAPGKGLEWVSSNSGAGSTYYADSVKGRFTISRDYSKNTLYLQMNSLRAEDTAVYYCAKGTNVGSWSSLHYWGQGTLVTVSS
Kd [1]: 700 nM
Kd [2]: 220 nM
Kd [3]: > 1700 nM
Kd [4]: > 77000 nM
Kd [5]: > 6100 nM
Kd [6]: > 17000 nM

B2: AS179732 VL1g1VH1g1-N73Y (Fc fusion)
chain: QSVLTQPPSASGTPGQRVTISCSGSSSNIGGNYVNWYQQLPGTAPKLLIYDNSNRASGVPDRFSGSKSGTSASLAISGLQSEDEADYYCASWDDSLSGAVFGGGTKLTVLGGGGSGGGGSGGGGSEVQLVESGGGLVQPGGSLRLSCAASGFTFLNYAMSWVRQAPGKGLEWVSSNSGAGSTYYADSVKGRFTISRDYSKNTLYLQMNSLRAEDTAVYYCAKGTNVGSWSSLHYWGQGTLVTVSS
Kd [2]: 220 nM
Kd [7]: 17000 nM
Kd [8]: > 1000 nM
Kd [3]: > 2400 nM
Kd [4]: > 29000 nM
Kd [5]: > 11000 nM

B3: AS170036 VL1VH1-56Y98Q108S (scFv)
scFv: QSALTQPRSVSGSPGQSVTISCAGTSSDVGSENYVSWYQQHPGKAPKLMIYQVNKRASGVPDRFSGSKSGNTASLTISGLQAEDEADYYCASYRSSDQNIVFGGGTKLTVLGGGGSGGGGSGGGGSEVQLVESGGGLVQPGGSLRLSCAASGFTFSSYAMSWVRQAPGKGLEWVSTINSGTYSPYYADSVKGRFTISRDNSKNTLYLQMNSLRAEDTAVYYCAKNFFDGSWFLSPPAMDYWGQGTLVTVSSHHHHHH
Kd [9]: 7 nM
Kd [10]: > 3100 nM
Kd [11]: < 18 nM
Kd [12]: > 1400 nM
Kd [13]: 290 nM
Kd [14]: 1500 nM
Kd [15]: 89 nM

B4: AS170036 VL1VH1-56N98I (scFv)
scFv: QSALTQPRSVSGSPGQSVTISCAGTSSDVGSENYVSWYQQHPGKAPKLMIYQVNKRASGVPDRFSGSKSGNTASLTISGLQAEDEADYYCASYRSSDINIVFGGGTKLTVLGGGGSGGGGSGGGGSEVQLVESGGGLVQPGGSLRLSCAASGFTFSSYAMSWVRQAPGKGLEWVSTINSGTNSPYYADSVKGRFTISRDNSKNTLYLQMNSLRAEDTAVYYCAKNFFDGSWFLGPPAMDYWGQGTLVTVSSHHHHHH
Kd [9]: 41 nM
Kd [16]: > 500 nM
Kd [17]: > 17000 nM
Kd [10]: > 3200 nM
Kd [15]: 570 nM
Kd [18]: 2700 nM
Kd [19]: 2100 nM

B5: AS170036 VL1VH1-56Y98I108S (scFv)
scFv: QSALTQPRSVSGSPGQSVTISCAGTSSDVGSENYVSWYQQHPGKAPKLMIYQVNKRASGVPDRFSGSKSGNTASLTISGLQAEDEADYYCASYRSSDINIVFGGGTKLTVLGGGGSGGGGSGGGGSEVQLVESGGGLVQPGGSLRLSCAASGFTFSSYAMSWVRQAPGKGLEWVSTINSGTYSPYYADSVKGRFTISRDNSKNTLYLQMNSLRAEDTAVYYCAKNFFDGSWFLSPPAMDYWGQGTLVTVSSHHHHHH
Kd [9]: 2.4 nM
Kd [10]: > 4500 nM
Kd [13]: 160 nM
Kd [14]: 1000 nM
Kd [15]: 69 nM
Kd [18]: 950 nM
Kd [19]: 2400 nM

B6: AS170036 VL1VH1-57K108S (scFv)
scFv: QSALTQPRSVSGSPGQSVTISCAGTSSDVGSENYVSWYQQHPGKAPKLMIYQVNKRASGVPDRFSGSKSGNTASLTISGLQAEDEADYYCASYRSSDHNIVFGGGTKLTVLGGGGSGGGGSGGGGSEVQLVESGGGLVQPGGSLRLSCAASGFTFSSYAMSWVRQAPGKGLEWVSTINSGTGKPYYADSVKGRFTISRDNSKNTLYLQMNSLRAEDTAVYYCAKNFFDGSWFLSPPAMDYWGQGTLVTVSSHHHHHH
Kd [9]: 35 nM
Kd [10]: > 1400 nM
Kd [11]: < 10 nM
Kd [13]: 370 nM
Kd [14]: 10000 nM
Kd [15]: 500 nM

B7: AS170036 VL1VH1-56N108A (scFv)
scFv: QSALTQPRSVSGSPGQSVTISCAGTSSDVGSENYVSWYQQHPGKAPKLMIYQVNKRASGVPDRFSGSKSGNTASLTISGLQAEDEADYYCASYRSSDHNIVFGGGTKLTVLGGGGSGGGGSGGGGSEVQLVESGGGLVQPGGSLRLSCAASGFTFSSYAMSWVRQAPGKGLEWVSTINSGTNSPYYADSVKGRFTISRDNSKNTLYLQMNSLRAEDTAVYYCAKNFFDGSWFLAPPAMDYWGQGTLVTVSSHHHHHH
Kd [9]: 27 nM
Kd [16]: > 500 nM
Kd [17]: > 9100 nM
Kd [10]: > 3700 nM
Kd [12]: > 2000 nM
Kd [15]: 320 nM
Kd [18]: 6700 nM

B8: AS190259 (Fc fusion)
chain: QSVVTQPSAVSVSLEETATITCQGGGYYVNWYQQKPGQAPVLVIYLNTNRPSGIPERFSASKSGGTATLTINGAQAEDEAAYYCQSADSSGNSAVFGGGTHLTVLGGGGSGGGGSGGGGSQVQLVQSGGGLVQPGGSLRLSCAASGFTFSSYAMSWVRQAPGKGLEWVSAINSGGGSTYYADSVKGRFTISRDNAKNTLYLQLNSLKTEDTAMYYCAKAASGYGGSWWGDATLDAWGQGTLVTVSS
Kd [20]: 4500 nM
Kd [21]: 2500 nM
Kd [22]: 520 nM
Kd [23]: 660 nM
Kd [24]: 35000 nM
Kd [25]: 3800 nM

B9: AS190259 scFv-mIgG2aFc (Fc fusion)
chain: QSVVTQPSAVSVSLEETATITCQGGGYYVNWYQQKPGQAPVLVIYLNTNRPSGIPERFSASKSGGTATLTINGAQAEDEAAYYCQSADSSGNSAVFGGGTHLTVLGGGGSGGGGSGGGGSQVQLVQSGGGLVQPGGSLRLSCAASGFTFSSYAMSWVRQAPGKGLEWVSAINSGGGSTYYADSVKGRFTISRDNAKNTLYLQLNSLKTEDTAMYYCAKAASGYGGSWWGDATLDAWGQGTLVTVSS
Kd [26]: 100 nM
EC50 [27]: 3.76 nM

B10: AS170036 VL1VH1 (Fc fusion)
chain: QSALTQPRSVSGSPGQSVTISCAGTSSDVGSENYVSWYQQHPGKAPKLMIYQVNKRASGVPDRFSGSKSGNTASLTISGLQAEDEADYYCASYRSSDHNIVFGGGTKLTVLGGGGSGGGGSGGGGSEVQLVESGGGLVQPGGSLRLSCAASGFTFSSYAMSWVRQAPGKGLEWVSTINSGTGSPYYADSVKGRFTISRDNSKNTLYLQMNSLRAEDTAVYYCAKNFFDGSWFLGPPAMDYWGQGTLVTVSS
Kd [2]: 2770 nM
Kd [8]: > 14000 nM
Kd [3]: > 1200 nM
Kd [4]: > 71000 nM

B11: AS179732 (Fc fusion)
chain: NFMLTQPPSMSGSPRQSVTISCTGSSSNIGGNYVNWYQHLPGTAPKLLIYDNSNRASGVPERFSGSKSGSSASLTITGLQAEDEGDYYCASWDDSLSGAVFGGGTHLTVLGGGGSGGGGSGGGGSEVQLVESGGGLVQPGGSLRLSCAASGFTFLNYAMSWVRQAPGKGLEWVSSNSGAGSTYYSDSVKGRFTISRDYAKNVVYLQLNSLKTEDTGMYYCAKGTNVGSWSSLHYWGQGTQVTVSS
Kd [1]: 656 nM
Kd [2]: 191 nM
Kd [28]: 19000 nM
Kd [29]: 2140 nM
Kd [7]: 26200 nM
Kd [3]: > 770 nM

B12: AS190259 VL1VH1 (Fc fusion)
chain: SSELTQDPAVSVALGQTVRITCQGGGYYVNWYQQKPGQAPVLVIYLNTNRPSGIPDRFSGSSSGNTASLTITGAQAEDEADYYCQSADSSGNSAVFGGGTKLTVLGGGGSGGGGSGGGGSEVQLVESGGGLVQPGGSLRLSCAASGFTFSSYAMSWVRQAPGKGLEWVSAINSGGGSTYYADSVKGRFTISRDNSKNTLYLQMNSLRAEDTAVYYCAKAASGYGGSWWGDATLDAWGQGTLVTVSS
Kd [20]: 6700 nM
Kd [21]: 3500 nM
Kd [22]: 800 nM
Kd [23]: 970 nM
Kd [24]: 48000 nM
Kd [25]: 7000 nM
